In publication PMC4558008, “Yeast Mitochondrial Transcription Factor Mtf1 Determines the Precision of Promoter-Directed Initiation of RNA Polymerase Rpo41” (PLoS ONE, 2015):

B1: Rpo41 ΔN393 (N-terminal 393 residues removed, 958 aa) (domain or fragment, yeast, UniProt P13433 394-1351, looked up)
chain: SLPTLEEKKAFESALNIFNQDRQKVLENRATEAARERWKHDFEEAKARGDISIEKNLNVKLWKWYNEMLPLVKEEINHCRSLLSEKLSDKKGLNKVDTNRLGYGPYLTLIDPGKMCVITILELLKLNSTGGVIEGMRTARAVISVGKAIEMEFRSEQVLKSESQAFRDVNKKSPEFKKLVQNAKSVFRSSQIEQSKILWPQSIRARIGSVLISMLIQVAKVSVQGVDPVTKAKVHGEAPAFAHGYQYHNGSKLGVLKIHKTLIRQLNGERLIASVQPQLLPMLVEPKPWVNWRSGGYHYTQSTLLRTKDSPEQVAYLKAASDNGDIDRVYDGLNVLGRTPWTVNRKVFDVVSQVWNKGEGFLDIPGAQDEMVLPPAPPKNSDPSILRAWKLQVKTIANKFSSDRSNRCDTNYKLEIARAFLGEKLYFPHNLDFRGRAYPLSPHFNHLGNDMSRGLLIFWHGKKLGPSGLKWLKIHLSNLFGFDKLPLKDRVAFTESHLQDIKDSAENPLTGDRWWTTADKPWQALATCFELNEVMKMDNPEEFISHQPVHQDGTCNGLQHYAALGGDVEGATQVNLVPSDKPQDVYAHVARLVQKRLEIAAEKGDENAKILKDKITRKVVKQTVMTNVYGVTYVGATFQIAKQLSPIFDDRKESLDFSKYLTKHVFSAIRELFHSAHLIQDWLGESAKRISKSIRLDVDEKSFKNGNKPDFMSSVIWTTPLGLPIVQPYREESKKQVETNLQTVFISDPFAVNPVNARRQKAGLPPNFIHSLDASHMLLSAAECGKQGLDFASVHDSYWTHASDIDTMNVVLREQFIKLHEVDLVLRLKEEFDQRYKNYVKIGKLKRSTDLAQKIIRIRKDLSRKLGRSTTLADEIYFEKKRQELLNSPLIEDRNVGEKMVTTVSLFEDITDLDALELENGGDENSGMSVLLPLRLPEIPPKGDFDVTVLRNSQYFFS
notes: printed length 958 aa (theoretical 111 kDa); source: E. coli Rosetta cells, purified (same method as His-Rpo41: Ni-NTA, Superdex 200 gel filtration)
B2: Yeast mitochondrial transcription factor Mtf1 (His-Mtf1) (natural protein, UniProt P14908 2-341, looked up)
chain: SVPIPGIKDISKLKFFYGFKYLWNPTVYNKIFDKLDLTKTYKHPEELKVLDLYPGVGIQSAIFYNKYCPRQYSLLEKRSSLYKFLNAKFEGSPLQILKRDPYDWSTYSNLIDEERIFVPEVQSSDHINDKFLTVANVTGEGSEGLIMQWLSCIGNKNWLYRFGKVKMLLWMPSTTARKLLARPGMHSRSKCSVVREAFTDTKLIAISDANELKGFDSQCIEEWDPILFSAAEIWPTKGKPIALVEMDPIDFDFDVDNWDYVTRHLMILKRTPLNTVMDSLGHGGQQYFNSRITDKDLLKKCPIDLTNDEFIYLTKLFMEWPFKPDILMDFVDMYQTEHSG
notes: Mtf1, yeast mitochondrial transcription factor (theoretical 40 kDa); the printed PCR primers run from the codon after the start methionine (TCT GTT CCA ATC CCT: S V P I P) to the stop codon; Subcloned into pTrcHisC (Invitrogen) between NheI and HindIII; the vector's leader with the His tag precedes the protein; source: E. coli Rosetta cells, purified

Assays:
[1] = molecular target: B2; experiment: cell-based or functional assay
[2] = molecular target: B2; experiment: SEC; analytical gel filtration (Superdex), 1 μM Rpo41 (wild-type or ΔN393), 2 μM Mtf1 and 3 μM 20 bp duplex DNA with the 14S rRNA promoter; peak fractions on SDS-PAGE with densitometry; apparent Kd in the presence of DNA; 40 mM Tris-HCl pH 7.9, 150 mM NaCl, 0.1% Tween 20, 15% glycerol, 1 mM EDTA, 1 mM DTT; details: both partners purified
[3] = molecular target: B1; experiment: SEC; analytical gel filtration (Superdex), 2.8 μM Rpo41 (wild-type or ΔN393) with 5.6 μM Mtf1, no DNA; peak fractions on SDS-PAGE with densitometry; apparent Kd; 40 mM Tris-HCl pH 7.9, 150 mM NaCl, 0.1% Tween 20, 15% glycerol, 1 mM EDTA, 1 mM DTT; details: both partners purified
[4] = molecular target: B1; experiment: SEC; analytical gel filtration (Superdex), 1 μM Rpo41 (wild-type or ΔN393), 2 μM Mtf1 and 3 μM 20 bp duplex DNA with the 14S rRNA promoter; peak fractions on SDS-PAGE with densitometry; apparent Kd in the presence of DNA; 40 mM Tris-HCl pH 7.9, 150 mM NaCl, 0.1% Tween 20, 15% glycerol, 1 mM EDTA, 1 mM DTT; details: both partners purified
[5] = molecular target: B2; experiment: SEC; analytical gel filtration (Superdex), 2.8 μM Rpo41 (wild-type or ΔN393) with 5.6 μM Mtf1, no DNA; peak fractions on SDS-PAGE with densitometry; apparent Kd; 40 mM Tris-HCl pH 7.9, 150 mM NaCl, 0.1% Tween 20, 15% glycerol, 1 mM EDTA, 1 mM DTT; details: both partners purified
[6] = molecular target: B2; experiment: as above; details: both partners purified; remark: listed apart in the source
[7] = molecular target: B2; experiment: SEC; analytical gel filtration (Superdex), 1 μM Rpo41 (wild-type or ΔN393), 2 μM Mtf1 and 3 μM 20 bp duplex DNA with the 14S rRNA promoter; peak fractions on SDS-PAGE with densitometry; apparent Kd in the presence of DNA; 40 mM Tris-HCl pH 7.9, 150 mM NaCl, 0.1% Tween 20, 15% glycerol, 1 mM EDTA, 1 mM DTT; details: both partners purified; remark: listed apart in the source

Question: B1 was tested. Which “activity of the holoenzyme on the 70 bp linear 14S rRNA promoter template, relative to the wild-type enzyme” value [1] did it give?
Answer: 20%

Question: And the “stoichiometry N” value [2]?
Answer: 1

Question: What does the source list for B2?
Answer: Kd [3]: 13000 nM; Kd [4]: 600 nM

B3: Yeast mitochondrial RNA polymerase Rpo41, wild-type (His-Rpo41) (enzyme)
chain: MLRPAYKSLVKTSLLQRRLISSKGSKLFKPSPDSTSTILISEDPLVTGSSPTSSTTSGIISSNDFPLFNKNRKDAKSSISYQWKNPSELEFDPFNKSHASAVTSMTRTRDVMQLWSLLEACLQSNLMKRAFSILESLYLVPEHKQRFIEDYNMYLNSFSKNDPNFPILKMNEKLTNDLETSFKDVNYNDKTLAIMIHHALNFHSTTSSMLLKPIISAYLKMSVNGIREIFSCLDILTISDLNILMNDLKVITPSQLPNSVRPILESLTLSPTPVNNIENEEGLNKVEAENDSKLHKASNASSDSIKKPSLDPLREVSFHGSTEVLSKDAEKLIAVDTIGMRVIRHTLLGLSLTPEQKEQISKFKFDANDNVLKMKPTKNDDNNNSINFFEIYNSLPTLEEKKAFESALNIFNQDRQKVLENRATEAARERWKHDFEEAKARGDISIEKNLNVKLWKWYNEMLPLVKEEINHCRSLLSEKLSDKKGLNKVDTNRLGYGPYLTLIDPGKMCVITILELLKLNSTGGVIEGMRTARAVISVGKAIEMEFRSEQVLKSESQAFRDVNKKSPEFKKLVQNAKSVFRSSQIEQSKILWPQSIRARIGSVLISMLIQVAKVSVQGVDPVTKAKVHGEAPAFAHGYQYHNGSKLGVLKIHKTLIRQLNGERLIASVQPQLLPMLVEPKPWVNWRSGGYHYTQSTLLRTKDSPEQVAYLKAASDNGDIDRVYDGLNVLGRTPWTVNRKVFDVVSQVWNKGEGFLDIPGAQDEMVLPPAPPKNSDPSILRAWKLQVKTIANKFSSDRSNRCDTNYKLEIARAFLGEKLYFPHNLDFRGRAYPLSPHFNHLGNDMSRGLLIFWHGKKLGPSGLKWLKIHLSNLFGFDKLPLKDRVAFTESHLQDIKDSAENPLTGDRWWTTADKPWQALATCFELNEVMKMDNPEEFISHQPVHQDGTCNGLQHYAALGGDVEGATQVNLVPSDKPQDVYAHVARLVQKRLEIAAEKGDENAKILKDKITRKVVKQTVMTNVYGVTYVGATFQIAKQLSPIFDDRKESLDFSKYLTKHVFSAIRELFHSAHLIQDWLGESAKRISKSIRLDVDEKSFKNGNKPDFMSSVIWTTPLGLPIVQPYREESKKQVETNLQTVFISDPFAVNPVNARRQKAGLPPNFIHSLDASHMLLSAAECGKQGLDFASVHDSYWTHASDIDTMNVVLREQFIKLHEVDLVLRLKEEFDQRYKNYVKIGKLKRSTDLAQKIIRIRKDLSRKLGRSTTLADEIYFEKKRQELLNSPLIEDRNVGEKMVTTVSLFEDITDLDALELENGGDENSGMSVLLPLRLPEIPPKGDFDVTVLRNSQYFFS
Question: With B3 as the binder, how does the “stoichiometry N” value [5] read?
Answer: 1

Question: And the Kd [6]?
Answer: 4000 nM

Question: What about the Kd [7] of the same binder?
Answer: 20 nM
